Sequences and labels used below:
B1: anti-IL-6 antibody, light chain N52S (heavy chain WT) (antibody, V domains shown)
VH: EVQLVESGGGLVQPGGSLRLSCAASGFTFSPFAMSWVRQAPGKGLEWVAKISPGGSWTYYSDTVTGRFTFSLDTSKSTAYLQMNSLRAEDTAVYYCARQLWGYYALDIWGQGTLVTVSS
VL: DIQLTQSPSSLSASVGDRVTITCSASISVSYMYWYQQKPGKAPKLLIYDMSSLASGVPSRFSGSGSGTDFTLTISSLQPEDFATYYCMQWSGYPYTFGQGTKVEIK
notes: See note of m2; also called WT / N52S
B2: anti-IL-6 antibody, light chain L53H (heavy chain WT) (antibody, V domains shown)
VH: B1 VH
VL: B1 VL with S52N, L53H
notes: See note of m2; also called WT / L53H
B3: anti-IL-6 antibody, light chain A54G (heavy chain WT) (antibody, V domains shown)
VH: B1 VH
VL: B1 VL with S52N, A54G
notes: See note of m2; also called WT / A54G
B4: anti-IL-6 antibody, light chain S30G (heavy chain WT) (antibody, V domains shown)
VH: B1 VH
VL: B1 VL with S30G, S52N
notes: See note of m2; also called WT / S30G
B5: anti-IL-6 antibody, light chain L53R (heavy chain WT) (antibody, V domains shown)
VH: B1 VH
VL: B1 VL with S52N, L53R
notes: See note of m2; also called WT / L53R
B6: anti-IL-6 antibody, light chain L46V (heavy chain WT) (antibody, V domains shown)
VH: B1 VH
VL: B1 VL with L46V, S52N
notes: See note of m2; also called WT / L46V
B7: anti-IL-6 antibody, light chain Q89S (heavy chain WT) (antibody, V domains shown)
VH: B1 VH
VL: B1 VL with S52N, Q89S
notes: See note of m2; also called WT / Q89S
B8: anti-IL-6 antibody, light chain A54L (heavy chain WT) (antibody, V domains shown)
VH: B1 VH
VL: B1 VL with S52N, A54L
notes: See note of m2; also called WT / A54L
B9: anti-IL-6 antibody, light chain L53W (heavy chain WT) (antibody, V domains shown)
VH: B1 VH
VL: B1 VL with S52N, L53W
notes: See note of m2; also called WT / L53W
B10: anti-IL-6 antibody, light chain I47V (heavy chain WT) (antibody, V domains shown)
VH: B1 VH
VL: B1 VL with I47V, S52N
notes: See note of m2; also called WT / 147V
B11: anti-IL-6 antibody, light chain S30A (heavy chain WT) (antibody, V domains shown)
VH: B1 VH
VL: B1 VL with S30A, S52N
notes: See note of m2; also called WT / S30A
B12: anti-IL-6 antibody, light chain Q89A (heavy chain WT) (antibody, V domains shown)
VH: B1 VH
VL: B1 VL with S52N, Q89A
notes: See note of m2; also called WT / Q89A
B13: anti-IL-6 antibody, light chain A54Y (heavy chain WT) (antibody, V domains shown)
VH: B1 VH
VL: B1 VL with S52N, A54Y
notes: See note of m2; also called WT / A54Y
B14: anti-IL-6 Fab, light chain S55Y (Fab, V domains shown)
VH: B1 VH
VL: B1 VL with S52N, S55Y
notes: see m39
B15: anti-IL-6 Fab, heavy chain A97V (Fab, V domains shown)
VH: B1 VH with A97V
VL: B1 VL with S52N
B16: anti-IL-6 Fab, heavy chain L100K (Fab, V domains shown)
VH: B1 VH with L100K
VL: B1 VL with S52N
B17: anti-IL-6 Fab, heavy chain I108S (Fab, V domains shown)
VH: B1 VH with I108S
VL: B1 VL with S52N
B18: anti-IL-6 Fab, heavy chain Q99H (Fab, V domains shown)
VH: B1 VH with Q99H
VL: B1 VL with S52N
B19: anti-IL-6 Fab, heavy chain Q99A (Fab, V domains shown)
VH: B1 VH with Q99A
VL: B1 VL with S52N
B20: anti-IL-6 Fab, heavy chain Y103E (Fab, V domains shown)
VH: B1 VH with Y103E
VL: B1 VL with S52N
B21: anti-IL-6 Fab, heavy chain D107E (Fab, V domains shown)
VH: B1 VH with D107E
VL: B1 VL with S52N
B22: anti-IL-6 Fab, heavy chain Y104V (Fab, V domains shown)
VH: B1 VH with Y104V
VL: B1 VL with S52N
B23: anti-IL-6 Fab, heavy chain A105Q (Fab, V domains shown)
VH: B1 VH with A105Q
VL: B1 VL with S52N
B24: anti-IL-6 Fab, heavy chain I108E (Fab, V domains shown)
VH: B1 VH with I108E
VL: B1 VL with S52N
B25: anti-IL-6 Fab, heavy chain Y103S (Fab, V domains shown)
VH: B1 VH with Y103S
VL: B1 VL with S52N
B26: anti-IL-6 Fab, heavy chain G102D (Fab, V domains shown)
VH: B1 VH with G102D
VL: B1 VL with S52N
B27: anti-IL-6 Fab, light chain Y95I (Fab, V domains shown)
VH: B1 VH
VL: B1 VL with S52N, Y95I
notes: see m39
B28: anti-IL-6 Fab, light chain S91A (Fab, V domains shown)
VH: B1 VH
VL: B1 VL with S52N, S91A
notes: see m39
B29: anti-IL-6 Fab, light chain T96I (Fab, V domains shown)
VH: B1 VH
VL: B1 VL with S52N, T96I
notes: see m39
B30: anti-IL-6 Fab, light chain Y33F (Fab, V domains shown)
VH: B1 VH
VL: B1 VL with Y33F, S52N
notes: see m39
B31: anti-IL-6 Fab, light chain Y48F (Fab, V domains shown)
VH: B1 VH
VL: B1 VL with Y48F, S52N
notes: see m39
B32: anti-IL-6 Fab, light chain S91K (Fab, V domains shown)
VH: B1 VH
VL: B1 VL with S52N, S91K
notes: see m39
B33: anti-IL-6 Fab, light chain Y31G (Fab, V domains shown)
VH: B1 VH
VL: B1 VL with Y31G, S52N
notes: see m39
B34: anti-IL-6 Fab, light chain Y48W (Fab, V domains shown)
VH: B1 VH
VL: B1 VL with Y48W, S52N
notes: see m39
B35: anti-IL-6 Fab, light chain Y31F (Fab, V domains shown)
VH: B1 VH
VL: B1 VL with Y31F, S52N
notes: see m39
B36: anti-IL-6 Fab, light chain V29L (Fab, V domains shown)
VH: B1 VH
VL: B1 VL with V29L, S52N
notes: see m39
B37: anti-IL-6 Fab, light chain T96V (Fab, V domains shown)
VH: B1 VH
VL: B1 VL with S52N, T96V
notes: see m39
B38: anti-IL-6 Fab, light chain T96L (Fab, V domains shown)
VH: B1 VH
VL: B1 VL with S52N, T96L
notes: see m39
B39: anti-IL-6 Fab, light chain Y95G (Fab, V domains shown)
VH: B1 VH
VL: B1 VL with S52N, Y95G
notes: see m39

Substitutions are numbered along the chain they refer to. Names and notes keep the numbering of the source.

The values below come from patent publication US20240209076A1 (KODIAK SCIENCES, published 2024).

In one assay the target is T1, recombinant human IL-6 (human, UniProt P05231 30-212).
T1 construct: Bought protein
Nature of the assay: SPR Biacore, supernatant Ab on Protein A chip, IL-6 analyte, 25 C. As to the method: Antibodies were captured on a Protein A chip (GE) by injecting 1:20 dilution of cell supernatant at 10 μL/min for 60 seconds. […] The sensor chip was regenerated by a 60 seconds injection of 10 mM Glycine pH 1.7 at flow rate of 50 μL/min. […] For this setup, 1 μg/mL of purified antibody was injected over a Protein A chip at 10 μL/min for 25-28 seconds. Data analysis for supernatant and purified samples were performed using BIAevaluation software (GE). All sensorgrams were double reference subtracted and fit using a 1:1 Langmuir binding model.
Background: SPR reads the build-up and loss of mass on a sensor chip optically.
T1 sequence (P05231 30-212 limits assumed): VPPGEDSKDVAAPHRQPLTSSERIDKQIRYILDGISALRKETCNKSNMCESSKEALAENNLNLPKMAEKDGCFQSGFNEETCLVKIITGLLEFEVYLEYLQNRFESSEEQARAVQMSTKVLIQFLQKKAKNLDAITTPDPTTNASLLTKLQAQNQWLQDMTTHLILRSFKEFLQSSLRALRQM
For orientation: Kd means the concentration at which binding is half-saturated. What is called koff is the rate constant with which the complex falls apart. A word on the kon: it is a measure of how fast the partners come together. As to B1, the Kd was 0.353 nM, the koff came to 0.000152 s⁻¹ and the kon is 430000 M⁻¹ s⁻¹.
In the same order, the values of B2 are 0.401 nM, 0.000218 s⁻¹ and 544000 M⁻¹ s⁻¹.
For B3 the same measures were 0.416 nM, 0.000198 s⁻¹ and 475000 M⁻¹ s⁻¹.
For B4 the same measures were 0.316 nM, 0.000173 s⁻¹ and 548000 M⁻¹ s⁻¹.
Regarding B5, the dissociation constant (Kd) was 0.446 nM, the off-rate (koff) turned out to be 0.000185 s⁻¹ and the kon is 416000 M⁻¹ s⁻¹.
For B6 the same measures were 0.442 nM, 0.000203 s⁻¹ and 460000 M⁻¹ s⁻¹.
In the same order, the values of B7 are 0.752 nM, 0.000272 s⁻¹ and 362000 M⁻¹ s⁻¹.
As for B8, the Kd came to 0.499 nM, the koff turned out to be 0.00021 s⁻¹ and the kon is 420000 M⁻¹ s⁻¹.
As to B9, the Kd was 0.00518 nM, the koff came out at 6.14e-06 s⁻¹ and the kon was determined as 1.19e+06 M⁻¹ s⁻¹.
Regarding B10, the Kd stood at 0.414 nM, the koff came to 0.000195 s⁻¹ and the kon amounted to 471000 M⁻¹ s⁻¹.
For B11 the same measures were 0.639 nM, 0.000163 s⁻¹ and 255000 M⁻¹ s⁻¹.
In the same order, the values of B12 are 0.419 nM, 0.000227 s⁻¹ and 543000 M⁻¹ s⁻¹.
In the same order, the values of B13 are 0.168 nM, 0.000109 s⁻¹ and 652000 M⁻¹ s⁻¹.

In a further assay the target is recombinant human IL-6 (human, UniProt P05231 30-212). Nature of the assay: SPR, IL-6 on CM5 chip, Fab lysate, 25 C.
Target sequence in this assay (P05231 30-212 limits assumed): as above
As for B14, the koff was 0.00508 s⁻¹.
Same read-out and setting: the figure for B15 is 0.00412 s⁻¹; for B16 it is 0.00287 s⁻¹.
On the same count and under the same terms, the figure for B17 is 0.00352 s⁻¹; for B18 it is 0.00441 s⁻¹.
On the same count and under the same terms, in the case of B19 it was 0.00388 s⁻¹; in that of B20, 0.00512 s⁻¹.
Consider B21, for which the off-rate (koff) is 0.00438 s⁻¹.
The same measure, in the same setting: the figure for B22 is 0.00381 s⁻¹; for B23 it is 0.00401 s⁻¹.
Still for that read-out and setting: in the case of B24 it was 0.00308 s⁻¹; in that of B25, 0.00502 s⁻¹; in that of B26, 0.00389 s⁻¹.
Still for that read-out and setting: in the case of B27 it was 0.00608 s⁻¹; in that of B28, 0.00559 s⁻¹; in that of B29, 0.00423 s⁻¹.
As to B30, the koff worked out at 0.00618 s⁻¹.
Take B31: the koff is 0.00537 s⁻¹.
Turning to B32, the koff came to 0.00549 s⁻¹.
Same read-out and setting: in the case of B33 it was 0.00511 s⁻¹; in that of B34, 0.00563 s⁻¹; in that of B35, 0.0051 s⁻¹.
Same read-out and setting: the figure for B36 is 0.00543 s⁻¹; for B37 it is 0.00504 s⁻¹; for B38 it is 0.00478 s⁻¹.
Still for that read-out and setting: the figure for B39 is 0.00462 s⁻¹.
